Experimental data as given in patent US20220155314A1 (ACADEMIA SINICA, published 2022).

Molecular target: T1, HA-GCM1 (UniProt Q9NP62 1-436)
T1 construct: Expressed in transfected 293T or Hep3B cells; also called glial cells missing 1; pHA-GCM1; not shown: N-terminal HA tag
T1 sequence (looked up): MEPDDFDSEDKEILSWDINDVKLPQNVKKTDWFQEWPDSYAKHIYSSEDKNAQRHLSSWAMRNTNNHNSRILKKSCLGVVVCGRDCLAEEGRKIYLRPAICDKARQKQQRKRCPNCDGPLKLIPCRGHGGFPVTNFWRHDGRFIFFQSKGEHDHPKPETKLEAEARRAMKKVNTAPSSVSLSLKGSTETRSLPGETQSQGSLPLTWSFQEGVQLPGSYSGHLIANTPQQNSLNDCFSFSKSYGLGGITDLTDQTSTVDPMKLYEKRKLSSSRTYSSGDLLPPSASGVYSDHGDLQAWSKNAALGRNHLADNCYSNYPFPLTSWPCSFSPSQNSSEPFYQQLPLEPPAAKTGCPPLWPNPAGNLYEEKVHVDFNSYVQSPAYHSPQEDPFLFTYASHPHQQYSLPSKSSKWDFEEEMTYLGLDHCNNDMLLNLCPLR
Assay: co-immunoprecipitation with HA and FLAG mAbs in transfected 293T cells
From the text: 293T cells were transfected with different combinations of pΔNp63α-FLAG, pOVOL1-FLAG, and pHA-GCM1 for co-immunoprecipitation analysis with HA and FLAG mAbs. […] 293T cells were transfected with pHA-GCM1 and different pΔNp63α-FLAG plasmids encoding full-length or deletion mutant ΔNp63α-FLAG proteins, followed by co-immunoprecipitation analysis with HA and FLAG mAbs. Schematic representation of functional domains in ΔNp63α is presented. DBD: DNA-binding domain; OD: oligomerization domain; SAM: sterile alpha motif; TID: transactivation inhibitory domain. In a separate experiment, 293T cells were transfected with pΔNp63α-HA and pGAL4-FLAG or different pGAL4-GCM1-FLAG plasmids encoding full-length or deletion mutant GAL4GCM1-FLAG proteins for co-immunoprecipitation analysis with HA and FLAG mAbs. Schematic representation of functional domains in GCM1 is presented. TAD: transactivation domain. […] Glutathione-conjugated agarose beads pre-bound with GST, GST-SAM or GST-OD were incubated with recombinant GCM1-FLAG protein in pull-down assays. […] Mock and ΔNp63α-FLAG-expressing BeWo cells were subjected to immunoblotting (left) and quantitative RT-PCR (right) analyses of GCM1, HTRA4, and hCGβ proteins and transcripts. […] BeWo cells stably expressing scramble or GCM1 shRNA were subjected to immunoblotting (left) and quantitative RT-PCR (right) analyses of GCM1 and ΔNp63α proteins and transcripts.

binding result: no binding
B1: OVOL1-FLAG (other, human, UniProt O14753 1-267, looked up)
chain: MPRAFLVKKPCVSTCKRNWSELPDEERGEIYVPVSLGFCPPQPYREPEPSVAEPPSCPLALNMSLRDSSYSMAPGPCVVAQLPSEDMGHLTDPQSRDHGFLRTKMKVTLGDSPSGDLFTCRVCQKAFTYQRMLNRHMKCHNDVKRHLCTYCGKGFNDTFDLKRHVRTHTGVRPYKCSLCDKAFTQRCSLESHLKKIHGVQQKYAYKERRAKLYVCEECGCTSESQEGHVLHLKEHHPDSPLLRKTSKKVAVALQNTVTSLLQGSPHL
notes: also called pOVOL1-FLAG; pOVOL-1-FLAG; not shown: C-terminal FLAG tag
